What was measured:
[1] = target: T1, MBP-OsTORKD (rice, UniProt Q0DJS1 1896-2465); test: ITC
T1 chain: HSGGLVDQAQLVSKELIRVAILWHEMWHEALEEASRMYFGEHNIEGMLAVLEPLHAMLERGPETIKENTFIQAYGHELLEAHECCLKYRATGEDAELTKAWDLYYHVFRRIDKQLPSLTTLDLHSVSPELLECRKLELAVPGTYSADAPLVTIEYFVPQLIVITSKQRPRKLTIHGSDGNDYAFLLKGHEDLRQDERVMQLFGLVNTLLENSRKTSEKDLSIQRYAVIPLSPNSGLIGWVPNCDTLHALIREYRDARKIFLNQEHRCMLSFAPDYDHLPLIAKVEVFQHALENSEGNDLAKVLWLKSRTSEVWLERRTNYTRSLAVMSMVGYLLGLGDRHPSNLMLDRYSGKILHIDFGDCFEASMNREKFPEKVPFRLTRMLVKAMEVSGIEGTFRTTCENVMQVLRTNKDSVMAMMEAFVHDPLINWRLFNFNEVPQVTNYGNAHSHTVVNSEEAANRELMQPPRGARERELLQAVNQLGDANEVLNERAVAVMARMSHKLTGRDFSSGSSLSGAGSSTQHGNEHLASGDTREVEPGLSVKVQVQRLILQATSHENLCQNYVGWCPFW

[2] = target: T1, MBP-OsTORKD; test: ITC; His-OsFKBP12 in the syringe (10 mM) titrated into MBP-OsNIN8, MBP-OsNIN8m or MBP-OsTORKD in the cell (0.1 mM); 25°C; 20 injections of 2.5 μL, interval 200 s; proteins dialysed in 50 mM potassium phosphate pH 6.4

- Kd [1]: 81.8 µM
- stoichiometry N (OsFKBP12 per OsTORKD) [2]: 6
B1: His-OsFKBP12 (natural protein)
chain: MGFEKTILKAGTGPKPVKGQKVTVHCTGFGKDNDLAKKFWSTKDAGQEPFSFNIGQGSVIKGWDEGVMTMQVGEVARIQCTPDYAYGASGFPAWGIRPNSVLVFEIEVLSAQ

— publication PMC11732086 (2024)
